Assay results reported in patent publication US20120308571A1 (FUJIFILM RI PHARMA, published 2012).

T1: human podoplanin (human, UniProt Q86YL7 23-162)
T1 construct: whole, on cells; also called Aggrus
T1 sequence (looked up): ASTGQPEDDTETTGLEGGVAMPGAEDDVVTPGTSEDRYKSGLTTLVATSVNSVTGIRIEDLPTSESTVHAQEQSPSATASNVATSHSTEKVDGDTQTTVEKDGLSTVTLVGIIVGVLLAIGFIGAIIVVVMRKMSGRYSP


What was measured:
human podoplanin [1] = target: T1, human podoplanin; experiment: flow cytometry on H226 and LN319 cells, 10 ug/ml antibody
Protocol: First, NZ-1 antibodies, mouse chimera-type NZ-1 antibodies, and human chimera-type NZ-1 antibodies (10 μg/ml) were reacted at 4° C. for 30 minutes with human malignant mesothelioma cells (H226) and human glioma cells (LN319) which expressed human podoplanin. In addition, anti-rat IgG-FITC antibodies, anti-mouse IgG-FITC antibodies, and anti-human IgG-FITC antibodies were respectively reacted at 4° C. for 30 minutes. The fluorescence intensity was measured by FACSCalibur (BD).

human podoplanin [2] = target: T1, human podoplanin; experiment: flow cytometry on H2052 mesothelioma cells, 10 ug/ml antibody
Protocol: Meanwhile, the expression of podoplanin in the mesothelioma cells was confirmed by flow cytometry. Specifically, the cells were reacted with NZ-1 antibodies (10 μg/ml) at 4° C. for 30 minutes, and further reacted with anti-rat IgG-FITC antibodies at 4° C. for 30 minutes. Fluorescence intensity was measured by FACSCalibur (BD).

Row | binding result (human podoplanin [1]) | binding result (human podoplanin [2]) | Binder
1 | binds | – | human chimera-type NZ-1 antibody (antibody, Heavy chain is the VH of rat NZ-1 joined to the CH1, hinge, CH2 and CH3 of human IgG1; also called human chimeric antibody; human chimera-type antibody) heavy: not shown light: QFVLTQPNSVSTNLGSTVKLSCKRSTGNIGSNYVNWYQQHEGRSPTTMIYRDDKRPDGVPDRFSGSIDRSSNSALLTINNVQTEDEADYFCHSYSSGIVFGGGTKLTVLGQPKGIRTVAAPSVFIFPPSDEQLKSGTASVVCLLNNFYPREAKVQWKVDNALQSGNSQESVTEQDSKDSTYSLSSTLTLSKADYEKHKVYACEVTHQGLSSPVTKSFNRGEC
2 | – | binds | rat NZ-1 antibody (antibody, Rat monoclonal antibody from the NZ-1 hybridoma; also called rat monoclonal antibody NZ-1) heavy: EVQLVESGGGLVQPGRSLKLSCAASGFTFSNYGMAWVRQTPTKGLEWIASISAGGDKTYYGDSVKGRFSISRDNAKTTHYLQMDSLRSEDTATYYCAKTSRVYFDYWGQGVMVTVSSAETTAPSVYPLAPGTALKSNSMVTLGCLVKGYFPEPVTVTWNSGALSSGVHTFPAVLQSGLYTLTSSVTVPSSTWSSQAVTCNVAHPASSTKVDKKIVPRECNPCGCTGSEVSSVFIFPPKTKDVLTITLTPKVTCVVVDISQNDPEVRFSWFIDDVEVHTAQTHAPEKQSNSTLRSVSELPIVHRDWLNGKTFKCKVNSGAFPAPIEKSISKPEGTPRGPQVYTMAPPKEEMTQSQVSITCMVKGFYPPDIYTEWKMNGQPQENYKNTPPTMDTDGSYFLYSKLNVKKETWQQGNTFTCSVLHEGLHNHHTEKSLSHSPGK light: QFVLTQPNSVSTNLGSTVKLSCKRSTGNIGSNYVNWYQQHEGRSPTTMIYRDDKRPDGVPDRFSGSIDRSSNSALLTINNVQTEDEADYFCHSYSSGIVFGGGTKLTVLGQPKSTPTLTVFPPSTEELQGNKATLVCLISDFYPSDVEVAWKANGAPISQGVDTANPTKQGNKYIASSFLRLTAEQWRSRNSFTCQVTHEGNTVEKSLSPAECV
3 | binds | – | mouse chimera-type NZ-1 antibody (antibody, Heavy chain is the VH and CH1 of rat NZ-1 joined to the hinge, CH2 and CH3 of mouse IgG2a; Light chain is the rat NZ-1 L chain; also called mouse chimeric antibody; mouse chimera-type antibody) heavy: EVQLVESGGGLVQPGRSLKLSCAASGFTFSNYGMAWVRQTPTKGLEWIASISAGGDKTYYGDSVKGRFSISRDNAKTTHYLQMDSLRSEDTATYYCAKTSRVYFDYWGQGVMVTVSSAETTAPSVYPLAPGTALKSNSMVTLGCLVKGYFPEPVTVTWNSGALSSGVHTFPAVLQSGLYTLTSSVTVPSSTWSSQAVTCNVAHPASSTKVDKKIVPRRSPPLKECPPCAAPDLLGGPSVFIFPPKIKDVLMISLSPMVTCVVVDVSEDDPDVQISWFVNNVEVHTAQTQTHREDYNSTLRVVSALPIQHQDWMSGKEFKCKVNNRALPSPIEKTISKPRGPVRAPQVYVLPPPAEEMTKKEFSLTCMITGFLPAEIAVDWTSNGRTEQNYKNTATVLDSDGSYFMYSKLRVQKSTWERGSLFACSVVHEGLHNHLTTKTISRSLGK light: QFVLTQPNSVSTNLGSTVKLSCKRSTGNIGSNYVNWYQQHEGRSPTTMIYRDDKRPDGVPDRFSGSIDRSSNSALLTINNVQTEDEADYFCHSYSSGIVFGGGTKLTVLGQPKSTPTLTVFPPSTEELQGNKATLVCLISDFYPSDVEVAWKANGAPISQGVDTANPTKQGNKYIASSFLRLTAEQWRSRNSFTCQVTHEGNTVEKSLSPAECV
